Reference: patent publication EP4663654A1 (Hangzhou Sciwind Biosciences Co., Ltd., dated 2025)
Values belong to the binder of their own block, whether it stands above or below them. Starred links: 1 amine or outer side, 2 acyl side, 3 side chain; linkers in the order of their positions; H or OH if unused. Non-standard residues stand in square brackets, D forms with d. *: point of attachment. C20 diacid = O=C(O)CCCCCCCCCCCCCCCCCCC(=O)*; γGlu = O=C(O)[C@H](CCC(=O)[*:2])N[*:1]; Hyp = O=C(O)[C@@H]1C[C@@H](O)CN1

Target: T1, human amylin receptor (AMY3) on CHO-K1/Ga15/AMY3 amylin receptor/CRE-luc cells (human, UniProt P30988 25-474; O60896 24-148)
T1 sequence (looked up) 1: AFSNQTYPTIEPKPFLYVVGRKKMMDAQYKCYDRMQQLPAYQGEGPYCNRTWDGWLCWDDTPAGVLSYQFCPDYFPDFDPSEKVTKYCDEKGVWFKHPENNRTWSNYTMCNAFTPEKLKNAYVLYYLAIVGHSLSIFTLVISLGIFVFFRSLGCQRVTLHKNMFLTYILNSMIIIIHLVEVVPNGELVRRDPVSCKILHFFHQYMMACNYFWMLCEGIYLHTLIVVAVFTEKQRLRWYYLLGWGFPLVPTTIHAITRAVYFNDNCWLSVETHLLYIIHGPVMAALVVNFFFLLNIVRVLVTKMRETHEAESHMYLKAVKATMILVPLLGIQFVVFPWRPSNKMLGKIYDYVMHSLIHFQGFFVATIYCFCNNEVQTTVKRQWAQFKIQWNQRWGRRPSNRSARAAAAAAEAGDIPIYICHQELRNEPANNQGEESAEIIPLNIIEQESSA
T1 sequence (looked up) 2: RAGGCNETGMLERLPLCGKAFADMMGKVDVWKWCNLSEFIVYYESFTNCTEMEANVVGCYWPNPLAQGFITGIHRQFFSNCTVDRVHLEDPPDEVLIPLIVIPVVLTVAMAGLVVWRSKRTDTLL
Assay: cell-based or functional assay

EC50/nM, CRE-luciferase reporter in amylin receptor/CRE-luc CHO cells: 0.08 nM
Relative activity (the EC50 ratio of Cagrilintide to the compound): 163%
B1: polypeptide derivative M51 (peptide)
peptide: {C20 diacid-γGlu}-ASQLSTAATQRLADFLRHSSGNLKPILPPTNVGSNT[Hyp]-NH2
SMILES: CC[C@H](C)[C@H](NC(=O)[C@@H]1CCCN1C(=O)[C@H](CCCCN)NC(=O)[C@H](CC(C)C)NC(=O)[C@H](CC(N)=O)NC(=O)CNC(=O)[C@H](CO)NC(=O)[C@H](CO)NC(=O)[C@H](Cc1c[nH]cn1)NC(=O)[C@H](CCCNC(=N)N)NC(=O)[C@H](CC(C)C)NC(=O)[C@H](Cc1ccccc1)NC(=O)[C@H](CC(=O)O)NC(=O)[C@H](C)NC(=O)[C@H](CC(C)C)NC(=O)[C@H](CCCNC(=N)N)NC(=O)[C@H](CCC(N)=O)NC(=O)[C@@H](NC(=O)[C@H](C)NC(=O)[C@H](C)NC(=O)[C@@H](NC(=O)[C@H](CO)NC(=O)[C@H](CC(C)C)NC(=O)[C@H](CCC(N)=O)NC(=O)[C@H](CO)NC(=O)[C@H](C)NC(=O)CC[C@H](NC(=O)CCCCCCCCCCCCCCCCCCC(=O)O)C(=O)O)[C@@H](C)O)[C@@H](C)O)C(=O)N[C@@H](CC(C)C)C(=O)N1CCC[C@H]1C(=O)N1CCC[C@H]1C(=O)N[C@H](C(=O)N[C@@H](CC(N)=O)C(=O)N[C@H](C(=O)NCC(=O)N[C@@H](CO)C(=O)N[C@@H](CC(N)=O)C(=O)N[C@H](C(=O)N1C[C@H](O)C[C@H]1C(N)=O)[C@@H](C)O)C(C)C)[C@@H](C)O

EC50/nM, CRE-luciferase reporter in amylin receptor/CRE-luc CHO cells: 0.09 nM
Relative activity (the EC50 ratio of Cagrilintide to the compound): 178%
B2: polypeptide derivative M52 (peptide)
peptide: {C20 diacid-γGlu}-ASQLSTAATQRLADFLRHSSHNLKPILPPTNVGSNT[Hyp]-NH2
SMILES: CC[C@H](C)[C@H](NC(=O)[C@@H]1CCCN1C(=O)[C@H](CCCCN)NC(=O)[C@H](CC(C)C)NC(=O)[C@H](CC(N)=O)NC(=O)[C@H](Cc1c[nH]cn1)NC(=O)[C@H](CO)NC(=O)[C@H](CO)NC(=O)[C@H](Cc1c[nH]cn1)NC(=O)[C@H](CCCNC(=N)N)NC(=O)[C@H](CC(C)C)NC(=O)[C@H](Cc1ccccc1)NC(=O)[C@H](CC(=O)O)NC(=O)[C@H](C)NC(=O)[C@H](CC(C)C)NC(=O)[C@H](CCCNC(=N)N)NC(=O)[C@H](CCC(N)=O)NC(=O)[C@@H](NC(=O)[C@H](C)NC(=O)[C@H](C)NC(=O)[C@@H](NC(=O)[C@H](CO)NC(=O)[C@H](CC(C)C)NC(=O)[C@H](CCC(N)=O)NC(=O)[C@H](CO)NC(=O)[C@H](C)NC(=O)CC[C@H](NC(=O)CCCCCCCCCCCCCCCCCCC(=O)O)C(=O)O)[C@@H](C)O)[C@@H](C)O)C(=O)N[C@@H](CC(C)C)C(=O)N1CCC[C@H]1C(=O)N1CCC[C@H]1C(=O)N[C@H](C(=O)N[C@@H](CC(N)=O)C(=O)N[C@H](C(=O)NCC(=O)N[C@@H](CO)C(=O)N[C@@H](CC(N)=O)C(=O)N[C@H](C(=O)N1C[C@H](O)C[C@H]1C(N)=O)[C@@H](C)O)C(C)C)[C@@H](C)O
